Test results reported in patent publication US20170369545A1.

Molecular target: tyrosine kinase receptor MET on HeLa cells (UniProt P08581)
Sequence (P08581 25-1390 limits assumed): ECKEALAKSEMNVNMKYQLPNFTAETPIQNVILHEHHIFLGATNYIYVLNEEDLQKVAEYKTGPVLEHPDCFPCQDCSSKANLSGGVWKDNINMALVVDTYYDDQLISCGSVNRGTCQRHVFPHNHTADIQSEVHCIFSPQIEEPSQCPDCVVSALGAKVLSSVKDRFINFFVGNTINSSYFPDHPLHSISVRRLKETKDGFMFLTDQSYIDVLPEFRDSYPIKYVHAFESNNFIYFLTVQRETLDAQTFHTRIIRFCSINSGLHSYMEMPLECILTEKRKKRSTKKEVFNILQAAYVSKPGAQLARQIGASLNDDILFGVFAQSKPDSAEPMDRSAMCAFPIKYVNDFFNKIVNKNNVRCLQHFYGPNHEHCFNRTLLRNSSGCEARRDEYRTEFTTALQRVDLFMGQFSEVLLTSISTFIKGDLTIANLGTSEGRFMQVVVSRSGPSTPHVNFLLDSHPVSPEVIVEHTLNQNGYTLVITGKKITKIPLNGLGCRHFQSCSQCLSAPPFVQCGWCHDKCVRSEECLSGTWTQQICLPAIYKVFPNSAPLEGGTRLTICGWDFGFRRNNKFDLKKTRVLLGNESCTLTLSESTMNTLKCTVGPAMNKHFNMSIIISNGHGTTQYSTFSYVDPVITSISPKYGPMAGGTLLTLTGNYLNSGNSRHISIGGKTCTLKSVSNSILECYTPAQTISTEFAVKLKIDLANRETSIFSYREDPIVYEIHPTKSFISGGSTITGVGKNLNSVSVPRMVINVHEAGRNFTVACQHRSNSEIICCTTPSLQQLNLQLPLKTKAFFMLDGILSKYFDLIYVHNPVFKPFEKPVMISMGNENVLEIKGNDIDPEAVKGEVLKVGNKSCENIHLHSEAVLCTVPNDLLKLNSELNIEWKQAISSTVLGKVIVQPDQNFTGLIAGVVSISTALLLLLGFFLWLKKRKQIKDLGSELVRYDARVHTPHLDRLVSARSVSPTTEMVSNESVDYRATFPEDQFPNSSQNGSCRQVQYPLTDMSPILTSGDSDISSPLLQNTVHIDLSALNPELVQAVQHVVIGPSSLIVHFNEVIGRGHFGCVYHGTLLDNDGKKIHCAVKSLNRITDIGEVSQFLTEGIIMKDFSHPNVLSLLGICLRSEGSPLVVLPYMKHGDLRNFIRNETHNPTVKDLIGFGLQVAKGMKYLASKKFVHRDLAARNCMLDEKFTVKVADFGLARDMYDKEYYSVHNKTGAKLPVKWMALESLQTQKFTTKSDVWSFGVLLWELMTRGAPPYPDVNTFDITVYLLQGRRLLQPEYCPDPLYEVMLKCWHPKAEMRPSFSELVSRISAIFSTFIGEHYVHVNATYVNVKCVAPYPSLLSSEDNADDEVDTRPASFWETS

An EC50 (read off the curve), Akt phosphorylation (P-AKT) [P-AKT] of 30 pM and an EC50 (read off the curve), ERK phosphorylation (P-ERK) [P-ERK] of 20 pM were found for “Hepatocyte growth factor/scatter factor (HGF/SF) (from UniProt P14210 32-728) (ligand)” in this work.
